Laboratory results published in patent US12383631B2, “Immune antigen specific IL-18 immunocytokines and uses thereof” (Bright Peak Therapeutics AG, priority 2022, dated 2025).

Assays:
[1] = biological target: human PD-1/CD279 (Homo sapiens, UniProt Q15116); assay: PD-1 binding ELISA (Example 5); conditions: coated antibody or immunocytokine, biotinylated human PD-1/CD279-Fc
Procedure: The interaction of the unmodified antibodies and corresponding IL-18 immunocytokines with relevant immune cell associated antigen are measured by ELISA assay. For these studies, Corning high-binding half-area plates (Fisher Scientific, Reinach, Switzerland) are coated overnight at 4° C. with 25 μl of unmodified antibodies corresponding IL-18 immunocytokines at 5 μg/ml in PBS. Plates are then washed four times with 100 μl of PBS-0.02% Tween20. Plate surfaces are blocked with 25 μl of PBS-0.02% Tween20-1% BSA at 37° C. during 1 h. Plates are then washed four times with 100 μl of PBS-0.02% Tween20. […] Plates are then washed four times with 100 μl of PBS-0.02% Tween20. Twenty-five microliters of Streptavidin-Horseradish peroxidase (#RABHRP3, Merck, Buchs, Switzerland) diluted at 1:500 into PBS-0.02% Tween20-0.1% BSA are added to each well and incubated at Room Temperature during 30 min. Plates are then washed four times with 100 μl of PBS-0.02% Tween20. Fifty microliters of TMB substrate reagent (#CL07, Merck, Buchs, Switzerland) are added to each well and incubated at 37° C. during 5 min. After 5 min at 37° C., Horseradish peroxidase reaction is stopped by adding 50 μl/well of 0.5M H2SO4 stop solution. ELISA signal is then measured at 450 nm on an ENSPTRE® plate reader from Perkin Elmer (Schwerzenbach, Switzerland).

[2] = biological target: T1, human Fc gamma receptor IIa (FcγRIIa/CD32a) (Homo sapiens, UniProt P12318); assay: Human FcγR binding ELISA, FcγRIIa (Example 8); conditions: antibody coated on plate, soluble receptor titrated, read-out: FcγRIIa (CD32a) binding affinity
T1 sequence (P12318 36-218): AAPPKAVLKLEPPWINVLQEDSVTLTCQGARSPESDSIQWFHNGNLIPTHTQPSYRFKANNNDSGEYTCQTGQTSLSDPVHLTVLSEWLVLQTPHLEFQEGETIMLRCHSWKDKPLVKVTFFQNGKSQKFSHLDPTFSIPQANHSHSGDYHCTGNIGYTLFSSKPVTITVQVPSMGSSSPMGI
Procedure: (§1) The interaction of the unmodified and of conjugated antibodies with human Fc gamma receptors I (FcγRI/CD64), with human Fc gamma receptors IIa (FcγRIIa/CD32a), with inhibitory human Fc gamma receptors IIb (FcγRIIb/CD32b), and with human Fc gamma receptors III FcγRIIIa/CD16 were measured by ELISA.
(§2) Briefly, Corning high-binding half-area plates (Fisher Scientific, Reinach, Switzerland) were coated overnight at 4° C. with 25 μl of unmodified and of conjugated anti-PD1 antibodies at 2.5 μg/ml in PBS. Plates were then washed four times with 100 μl of PBS-0.02% Tween20. Plates surfaces were blocked with 25 μl of PBS-0.02% Tween20-1% BSA at 37° C. during 1 h. Plates were then washed four times with 100 μl of PBS-0.02% Tween20. Then twenty-five microliters of either recombinant Human Fc gamma RI/CD64 Protein (R&D systems, 1257-FC-050, CF), recombinant Human Fc gamma RIIA/CD32a (H167) Protein (R&D systems, 9595-CD-050, CF), recombinant Human Fc gamma RIIB/CD32b Avi-tag Protein (R&D systems, AVI1875-050, CF), or recombinant Human Fc gamma RIIIA/CD16a Protein (R&D systems, 4325-FC-050; CF) were added in five-fold serial dilutions ranging from 1000 nM to 0.001 nM into PBS-0.02% Tween20-0.1% BSA and incubated at 37° C. during 2 h. Plates were then washed four times with 100 μl of PBS-0.02% Tween20. Twenty-five microliters of a 1/500 HRP-anti-His antibody in PBS—0.02% Tween20-0.1% BSA (R&D systems, anti-HIS—HRP Ab, #MAB050H) were added to each well and plates were incubated at Room Temperature during 1 h. Plates were then washed four times with 100 μl of PBS-0.02% Tween20. Fifty microliters of TMB substrate reagent (#CL07, Merck, Buchs, Switzerland) were added to each well and incubated at 37° C. during 5 min. After 5 min at 37° C., Horseradish peroxidase reaction was stopped by adding 50 μl/well of 0.5M H2SO4 stop solution. ELISA signal was then measured at 450 nm on an EnSpire plate reader from Perkin Elmer (Schwerzenbach, Switzerland).

[3] = biological target: T2, human Fc gamma receptor IIb (FcγRIIb/CD32b) (Homo sapiens, UniProt P31994); assay: Human FcγR binding ELISA, FcγRIIb (Example 8); conditions: antibody coated on plate, soluble receptor titrated, read-out: FcγRIIb (CD32b) binding affinity
T2 sequence (P31994 43-310): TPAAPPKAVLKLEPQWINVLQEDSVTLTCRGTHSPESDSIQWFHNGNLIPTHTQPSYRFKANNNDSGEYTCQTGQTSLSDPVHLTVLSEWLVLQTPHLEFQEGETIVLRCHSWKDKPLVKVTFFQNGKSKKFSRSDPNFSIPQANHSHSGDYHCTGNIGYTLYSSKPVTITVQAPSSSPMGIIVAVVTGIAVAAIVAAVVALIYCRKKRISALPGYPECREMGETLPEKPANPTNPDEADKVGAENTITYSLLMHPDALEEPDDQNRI
Procedure: as §1, §2

[4] = biological target: human Fc gamma receptor III FcγRIIIa/CD16; assay: Human FcγR binding ELISA, FcγRIIIa (Example 8); conditions: antibody coated on plate, soluble receptor titrated, read-out: FcγRIIIa (CD16) binding affinity
Procedure: as §1, §2

[5] = biological target: human Fc gamma receptor I (FcγRI/CD64) (Homo sapiens, UniProt P12314); assay: Human FcγR binding ELISA, FcγRI (Example 8); conditions: antibody coated on plate, soluble receptor titrated, read-out: FcγRI/(CD64) binding affinity
Procedure: as §1, §2

Sequence of human Fc gamma receptor I (FcγRI/CD64) (P12314 16-374): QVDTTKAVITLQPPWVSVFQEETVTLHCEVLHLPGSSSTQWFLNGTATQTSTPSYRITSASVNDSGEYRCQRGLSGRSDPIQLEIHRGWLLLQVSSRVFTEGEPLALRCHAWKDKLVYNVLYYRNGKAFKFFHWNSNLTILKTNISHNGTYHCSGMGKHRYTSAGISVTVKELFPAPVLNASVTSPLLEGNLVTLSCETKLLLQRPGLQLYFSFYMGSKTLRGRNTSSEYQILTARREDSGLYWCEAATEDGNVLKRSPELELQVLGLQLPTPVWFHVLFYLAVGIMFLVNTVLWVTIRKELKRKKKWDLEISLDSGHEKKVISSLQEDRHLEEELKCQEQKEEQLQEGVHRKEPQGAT
Sequence of human Fc gamma receptor III FcγRIIIa/CD16 (P08637 17-254): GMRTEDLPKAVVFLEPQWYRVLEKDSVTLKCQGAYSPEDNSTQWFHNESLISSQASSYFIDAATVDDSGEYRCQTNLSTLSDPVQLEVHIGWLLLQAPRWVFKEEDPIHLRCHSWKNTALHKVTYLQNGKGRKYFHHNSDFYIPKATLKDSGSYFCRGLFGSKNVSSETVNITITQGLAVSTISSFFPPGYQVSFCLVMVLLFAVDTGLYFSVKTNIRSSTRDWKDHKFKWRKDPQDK
Sequence of human PD-1/CD279 (Q15116 25-288): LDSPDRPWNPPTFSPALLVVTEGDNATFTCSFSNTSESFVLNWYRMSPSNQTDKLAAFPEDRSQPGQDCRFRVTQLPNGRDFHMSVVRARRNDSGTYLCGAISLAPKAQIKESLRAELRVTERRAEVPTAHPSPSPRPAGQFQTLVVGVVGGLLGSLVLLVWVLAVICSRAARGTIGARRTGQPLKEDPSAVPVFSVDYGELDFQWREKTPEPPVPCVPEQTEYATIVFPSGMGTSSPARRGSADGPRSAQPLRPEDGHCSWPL

Kd [1] | Kd [2] | Kd [3] | Kd [4] | Kd [5] | Substance
> 100 nM | 1370 nM | > 10000 nM | 356 nM | 9.17 nM | Atezolizumab/Tecentriq: anti-PD-L1 antibody, unconjugated reference antibody [reference compound]
> 100 nM | 1740 nM | > 10000 nM | 492 nM | 10.8 nM | Composition B: immunocytokine: Atezolizumab/Tecentriq (anti-PD-L1) conjugated to IL-18 polypeptide SEQ ID NO: 30
 | 1350 nM | 2630 nM | 1710 nM | 0.315 nM | LZM-009: anti-PD-1 antibody (VH SEQ ID NO: 376, VL SEQ ID NO: 377), unconjugated reference antibody [reference compound]
